Holding throughout (test): Esterase substrate specificity, fluorogenic SAR library kinetics
Holding throughout (assay type): biochemical, Staphylococcus aureus
What all share (details): other: SaGloB, fluorogenic ester substrate; pH 7.5; 37.0 °C

Substrate in data set [1]: CC(C)CCC(=O)OCOc1ccc2c(c1)Oc1cc(OCOC(=O)CCC(C)C)ccc1C21OC(=O)c2ccccc21
The procedure: (§1) Kinetic measurements were performed according to [White et al., 2018] with minor variation. Lyophilized human and mouse sera were resuspended according to manufacturer instructions in highly pure, filtered water at protein concentrations of 85 mg/mL and 70 mg/mL, respectively. One milliliter of resuspended serum was added to a 24 mL mastermix for a final concentration of 31.25 mM Tris pH 7.5, 312.5 mM NaCl, 1.25 mM MgCl2, 12.5% glycerol, and 3.4 mg/mL or 2.8 mg/mL protein for human and mouse serum, respectively. For purified proteins, 5 mL of a 75 µg/mL stock was added to yield a 20 mL mastermix containing 31.25 mM Tris pH 7.5, 312.5 mM NaCl, 1.25 mM MgCl2, 12.5% glycerol, and 18.75 µg/mL protein. Mastermix was stored on ice when not in use. Twenty microliters of mastermix was transferred to a black, 96-well half area microplate (Corning, CLS3993) and prewarmed at 37°C. Fluorogenic substrates were prepared as 10 mM stock solutions in 100% DMSO and were diluted in water to a starting concentration of 500 µM. Enzyme catalyzed substrate hydrolysis was initiated by addition of 5 µL substrate dilution in technical duplicate to the prewarmed serum or protein solution. Final assay concentrations were as follows: 25 mM Tris pH 7.5, 250 mM NaCl, 1 mM MgCl2, 10% glycerol, and protein at a concentration of 2.72 mg/mL (human serum), 2.24 mg/mL (mouse serum), or 15 µg/mL (FrmB, GloB). The resulting change in fluorescence (λex = 485 nm, λem = 520 nm) was followed for 15 min at 37°C, collecting data every 30 s on a FLUOstar Omega microplate reader (BMG Labtech). Fluorescence measurements were converted to molar concentrations using a fluorescein standard curve (2.5 nmol–0.6 pmol). The initial rates of reaction were measured three independent times with two technical replicates per measurement and fit to a line using GraphPad Prism (GraphPad Software, La Jolla, CA). Initial rates of reaction were plotted versus the concentration of substrate and fit to a standard Michaelis–Menten equation (v = Vmax[S]/(Km + [S])), yielding estimates of Vmax and Km. Values for kcat and kcat/Km were calculated based on amount of enzyme added when purified enzymes were used.

Substrate in data set [2]: COC(C)C(=O)OCOc1ccc2c(c1)Oc1cc(OCOC(=O)C(C)OC)ccc1C21OC(=O)c2ccccc21
The protocol: as §1

Substrate in data set [3]: CC(C)SCC(=O)OCOc1ccc2c(c1)Oc1cc(OCOC(=O)CSC(C)C)ccc1C21OC(=O)c2ccccc21
The procedure: as §1

Substrate in data set [4]: CCSCCC(=O)OCOc1ccc2c(c1)Oc1cc(OCOC(=O)CCSCC)ccc1C21OC(=O)c2ccccc21
The procedure: as §1

Substrate in data set [5]: CCOCCC(=O)OCOc1ccc2c(c1)Oc1cc(OCOC(=O)CCOCC)ccc1C21OC(=O)c2ccccc21
The protocol:
as §1

Substrate in data set [6]: CCOC(C)C(=O)OCOc1ccc2c(c1)Oc1cc(OCOC(=O)C(C)OCC)ccc1C21OC(=O)c2ccccc21
The protocol:
as §1

Usually Km stands for the concentration of substrate that gives half-maximal velocity. Broadly, the kcat/Km is the second-order rate constant that governs catalysis at low substrate concentration.

B1: SaGloB (Staphylococcus aureus subsp. aureus str. Newman) (protein)
chain: MRISSLTLGLVDTNTYFIENDKAVILIDPSGESEKIIKKLNQINKPLKAILLTHAHFDHIGAVDDIVDRFDVPVYMHEAEFDFLKDPVKNGADKFKQYGLPIITSKVTPEKLNEGSTEIEGFKFNVLHTPGHSPGSLTYVFDEFAVVGDTLFNNGIGRTDLYKGDYETLVDSIQDKIFELEGDLPLFPGHGPYTTVDDEQLNPFLHG
With B1, the Km in data set [1] worked out at 48.00 µM; in data set [2], 20.5 µM; in data set [3] it was 65.8 µM; in data set [4], 31.7 µM; in data set [5], 21.2 µM; in data set [6] it was 15.5 µM. The Vmax in data set [1] was determined as 0.444 pmol*min-1*μg protein-1; in data set [2], 23.1 pmol*min-1*μg protein-1; in data set [3], 4.19 pmol*min-1*μg protein-1; in data set [4] it was 0.18 pmol*min-1*μg protein-1; in data set [5], 0.731 pmol*min-1*μg protein-1; in data set [6], 1.01 pmol*min-1*μg protein-1. Besides, the kcat was 0.0663 10-3 s-1 in data set [1]; 3.45 10-3 s-1 in data set [2]; 0.627 10-3 s-1 in data set [3]; 0.0266 10-3 s-1 in data set [4]; 0.109 10-3 s-1 in data set [5]; 0.151 10-3 s-1 in data set [6]. In addition, the kcat/Km in data set [1] is 1.38 M⁻¹ s⁻¹; in data set [2], 168 M⁻¹ s⁻¹; in data set [3], 9.53 M⁻¹ s⁻¹; in data set [4], 0.840 M⁻¹ s⁻¹; in data set [5], 5.15 M⁻¹ s⁻¹; in data set [6] it was 9.71 M⁻¹ s⁻¹.
